Assay [1] has as its target neuraminidase from A/BrevigMission/1/1918 (H1N1), residues 83 to 468 of the ectodomain, construct pTT5-NA (+SS −TET) (influenza A virus A/BrevigMission/1/1918 (H1N1)). Description: crystal structure.
Assay [2] shares this target. Description: dynamic light scattering; in solution; data not shown.

The source of these data is publication PMC8538103.

In general, stoichiometry N refers to the number of molecules, sites or subunits per partner or assembly. “neuraminidase from A/BrevigMission/1/1918 (H1N1), residues 83 to 468 of the ectodomain, construct pTT5-NA (+SS −TET) (domain or fragment)”: the stoichiometry N in assay [1] and in assay [2] was 4 throughout.
